# Test results reported in US20230018405A1.
# Ends that are not written are not given here. EGFP = GFP fused N-terminally (GFP-linker-3.2iPA), EGFP per filing
# How the values were obtained:
# rat Cav3.2 (rat) = rat Cav3.2 (rat) (UniProt Q9EQ60); assay: cell-based or functional assay
# [1] = biological target: human wide-type Cav3.2 (human) (UniProt O95180); assay: cell-based or functional assay
# Chain of UniProt O95180 (O95180 whole entry): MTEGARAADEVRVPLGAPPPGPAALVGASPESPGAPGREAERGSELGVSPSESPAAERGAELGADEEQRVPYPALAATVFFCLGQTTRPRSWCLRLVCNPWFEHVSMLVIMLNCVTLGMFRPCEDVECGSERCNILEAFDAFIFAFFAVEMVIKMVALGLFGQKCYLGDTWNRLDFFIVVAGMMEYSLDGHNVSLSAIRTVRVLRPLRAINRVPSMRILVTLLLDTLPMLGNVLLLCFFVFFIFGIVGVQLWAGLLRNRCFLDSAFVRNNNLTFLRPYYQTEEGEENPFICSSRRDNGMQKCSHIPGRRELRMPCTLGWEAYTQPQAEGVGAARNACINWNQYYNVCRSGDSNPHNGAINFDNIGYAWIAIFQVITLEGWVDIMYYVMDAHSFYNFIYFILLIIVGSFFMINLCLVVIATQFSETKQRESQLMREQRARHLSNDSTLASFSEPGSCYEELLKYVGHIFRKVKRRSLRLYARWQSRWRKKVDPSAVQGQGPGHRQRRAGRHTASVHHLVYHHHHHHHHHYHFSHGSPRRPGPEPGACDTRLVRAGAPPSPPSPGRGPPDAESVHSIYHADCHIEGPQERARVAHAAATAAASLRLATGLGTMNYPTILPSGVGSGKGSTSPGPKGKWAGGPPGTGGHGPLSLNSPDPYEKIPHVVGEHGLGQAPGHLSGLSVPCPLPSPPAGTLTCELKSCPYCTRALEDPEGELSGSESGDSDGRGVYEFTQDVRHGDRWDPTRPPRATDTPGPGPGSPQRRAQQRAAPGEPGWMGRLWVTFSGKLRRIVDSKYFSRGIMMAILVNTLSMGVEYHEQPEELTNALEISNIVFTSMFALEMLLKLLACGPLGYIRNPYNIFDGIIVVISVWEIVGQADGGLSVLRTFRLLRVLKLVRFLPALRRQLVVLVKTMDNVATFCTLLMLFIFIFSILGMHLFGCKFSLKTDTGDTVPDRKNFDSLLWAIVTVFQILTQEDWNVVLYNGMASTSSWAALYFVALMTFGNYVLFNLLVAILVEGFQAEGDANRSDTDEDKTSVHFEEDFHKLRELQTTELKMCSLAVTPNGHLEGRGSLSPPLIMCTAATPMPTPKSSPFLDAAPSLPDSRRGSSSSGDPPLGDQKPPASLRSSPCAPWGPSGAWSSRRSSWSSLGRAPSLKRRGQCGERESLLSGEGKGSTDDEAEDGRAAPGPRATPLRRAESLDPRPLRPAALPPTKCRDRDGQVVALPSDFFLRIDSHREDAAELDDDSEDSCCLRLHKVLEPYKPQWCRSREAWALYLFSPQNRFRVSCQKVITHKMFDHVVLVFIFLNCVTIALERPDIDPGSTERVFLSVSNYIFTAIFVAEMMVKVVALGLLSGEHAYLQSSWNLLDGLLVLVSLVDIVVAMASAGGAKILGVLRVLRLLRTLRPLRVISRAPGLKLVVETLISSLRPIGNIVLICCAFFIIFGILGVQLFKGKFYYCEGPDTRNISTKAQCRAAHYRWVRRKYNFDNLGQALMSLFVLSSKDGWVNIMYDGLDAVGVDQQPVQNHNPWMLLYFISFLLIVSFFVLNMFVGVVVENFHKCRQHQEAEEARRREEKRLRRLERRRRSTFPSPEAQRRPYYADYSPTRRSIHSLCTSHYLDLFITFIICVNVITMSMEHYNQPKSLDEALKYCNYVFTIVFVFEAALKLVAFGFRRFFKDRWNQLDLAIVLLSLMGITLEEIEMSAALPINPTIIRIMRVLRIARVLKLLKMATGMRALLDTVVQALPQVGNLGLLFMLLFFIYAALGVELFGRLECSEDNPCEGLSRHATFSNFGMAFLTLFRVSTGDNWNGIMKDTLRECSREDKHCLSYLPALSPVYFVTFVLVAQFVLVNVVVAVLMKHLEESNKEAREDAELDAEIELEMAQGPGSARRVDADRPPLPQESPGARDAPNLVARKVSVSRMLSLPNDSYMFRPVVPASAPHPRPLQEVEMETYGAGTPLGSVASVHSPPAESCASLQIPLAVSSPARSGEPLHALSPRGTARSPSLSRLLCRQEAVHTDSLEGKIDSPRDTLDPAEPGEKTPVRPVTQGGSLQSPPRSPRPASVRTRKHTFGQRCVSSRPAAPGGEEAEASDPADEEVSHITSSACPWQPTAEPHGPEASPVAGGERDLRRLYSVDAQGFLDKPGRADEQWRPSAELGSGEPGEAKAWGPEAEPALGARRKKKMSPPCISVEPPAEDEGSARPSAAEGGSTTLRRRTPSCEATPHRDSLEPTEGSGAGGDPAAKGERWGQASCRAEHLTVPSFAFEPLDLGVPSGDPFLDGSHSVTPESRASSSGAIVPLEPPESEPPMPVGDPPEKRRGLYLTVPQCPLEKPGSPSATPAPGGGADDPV
# Chain of UniProt Q9EQ60 (Q9EQ60 whole entry): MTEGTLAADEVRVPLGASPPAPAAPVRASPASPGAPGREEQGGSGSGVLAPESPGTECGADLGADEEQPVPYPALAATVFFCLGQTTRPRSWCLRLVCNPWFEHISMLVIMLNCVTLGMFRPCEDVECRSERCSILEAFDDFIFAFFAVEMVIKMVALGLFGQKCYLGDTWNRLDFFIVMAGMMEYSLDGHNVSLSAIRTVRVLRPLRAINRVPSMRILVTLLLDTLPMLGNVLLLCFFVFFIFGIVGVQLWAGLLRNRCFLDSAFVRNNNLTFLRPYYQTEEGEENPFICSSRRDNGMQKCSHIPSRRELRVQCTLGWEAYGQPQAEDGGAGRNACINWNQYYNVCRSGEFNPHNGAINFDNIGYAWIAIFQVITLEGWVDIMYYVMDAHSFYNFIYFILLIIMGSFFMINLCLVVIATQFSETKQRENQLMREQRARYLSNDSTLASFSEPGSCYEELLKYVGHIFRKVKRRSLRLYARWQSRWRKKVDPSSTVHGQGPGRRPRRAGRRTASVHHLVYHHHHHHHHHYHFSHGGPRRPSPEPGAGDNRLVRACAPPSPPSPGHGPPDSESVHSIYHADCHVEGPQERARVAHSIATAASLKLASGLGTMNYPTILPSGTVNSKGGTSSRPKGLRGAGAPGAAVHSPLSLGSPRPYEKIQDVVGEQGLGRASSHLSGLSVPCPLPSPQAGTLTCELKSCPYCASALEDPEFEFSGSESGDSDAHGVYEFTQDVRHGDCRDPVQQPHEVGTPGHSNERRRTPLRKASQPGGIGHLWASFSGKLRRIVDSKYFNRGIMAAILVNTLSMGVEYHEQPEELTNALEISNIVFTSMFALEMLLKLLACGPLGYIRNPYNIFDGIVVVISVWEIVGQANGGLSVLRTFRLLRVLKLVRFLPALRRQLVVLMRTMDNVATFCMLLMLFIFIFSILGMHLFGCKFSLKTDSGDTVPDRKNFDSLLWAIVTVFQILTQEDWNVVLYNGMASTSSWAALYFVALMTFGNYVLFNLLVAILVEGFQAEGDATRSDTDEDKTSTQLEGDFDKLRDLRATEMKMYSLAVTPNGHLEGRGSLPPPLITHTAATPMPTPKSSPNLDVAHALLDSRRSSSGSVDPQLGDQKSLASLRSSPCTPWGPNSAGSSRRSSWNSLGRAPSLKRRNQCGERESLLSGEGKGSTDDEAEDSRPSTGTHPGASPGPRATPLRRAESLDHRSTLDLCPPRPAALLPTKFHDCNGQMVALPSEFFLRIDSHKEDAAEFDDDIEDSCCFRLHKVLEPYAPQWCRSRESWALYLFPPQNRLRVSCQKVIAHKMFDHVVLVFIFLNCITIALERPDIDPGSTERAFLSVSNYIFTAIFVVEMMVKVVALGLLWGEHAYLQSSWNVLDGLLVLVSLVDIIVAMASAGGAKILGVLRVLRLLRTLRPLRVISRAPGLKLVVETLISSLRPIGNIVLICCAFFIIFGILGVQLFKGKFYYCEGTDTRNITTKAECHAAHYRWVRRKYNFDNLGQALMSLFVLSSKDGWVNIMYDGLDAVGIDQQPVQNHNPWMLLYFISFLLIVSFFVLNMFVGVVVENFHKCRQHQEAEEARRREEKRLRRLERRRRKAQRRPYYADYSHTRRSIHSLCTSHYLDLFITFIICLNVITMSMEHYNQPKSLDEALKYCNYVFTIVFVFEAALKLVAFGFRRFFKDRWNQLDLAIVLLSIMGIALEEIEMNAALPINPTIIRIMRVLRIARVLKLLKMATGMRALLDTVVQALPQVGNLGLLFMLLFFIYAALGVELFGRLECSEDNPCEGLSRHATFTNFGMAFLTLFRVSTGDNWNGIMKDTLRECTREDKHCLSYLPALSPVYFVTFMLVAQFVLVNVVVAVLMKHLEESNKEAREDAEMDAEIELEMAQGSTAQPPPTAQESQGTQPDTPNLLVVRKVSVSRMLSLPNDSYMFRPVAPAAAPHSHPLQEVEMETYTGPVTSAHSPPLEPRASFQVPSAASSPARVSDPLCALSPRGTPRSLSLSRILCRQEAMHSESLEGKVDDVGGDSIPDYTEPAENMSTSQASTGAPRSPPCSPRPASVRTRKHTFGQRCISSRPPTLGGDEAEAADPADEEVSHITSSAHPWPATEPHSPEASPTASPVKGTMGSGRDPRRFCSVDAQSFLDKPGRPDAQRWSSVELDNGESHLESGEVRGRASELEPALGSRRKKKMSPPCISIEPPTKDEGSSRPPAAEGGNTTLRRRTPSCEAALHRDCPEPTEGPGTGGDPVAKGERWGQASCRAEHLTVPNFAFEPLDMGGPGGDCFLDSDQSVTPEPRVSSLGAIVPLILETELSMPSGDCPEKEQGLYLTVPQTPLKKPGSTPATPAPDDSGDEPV
Binder,"enhancement of peak LVA ICa, dissociated rat DRG neurons after AAV6 injection (rat Cav3.2 (rat))","reduction of peak Cav3.2 current density (ICa3.2), whole-cell voltage-clamp, HEK3.2 cells [1]","Activation curves (G/Gmax), V½ [1]","Inactivation curves (I/Imax), V½ [1]","Peak T-type calcium currents, HEK3.2 cells (second institution) [1]","inhibition of peak LVA ICa (pA/pF), dissociated rat DRG neurons after AAV6 injection (rat Cav3.2 (rat))"
"GLRSRAQASNSAVDGTAGPGSPAAPVRASPASPGAPGREEQ (designed binder, not shown: large carriers) [GFP3.2NP]",–,–,-54.1 mV,-64.9 mV,41.1 pA/pF,–
"{EGFP}-GLRSRAQASNSAVDGTAGPGSRRSSWNSLGRAPSLKRR (designed binder, not shown: large carriers) [GFP3.2iPA1]",–,70%,-56.1 mV,-69.8 mV,20.2 pA/pF,70%
"{EGFP}-GLRSRAQASNSAVDGTAGPGSRRREEKRLRRLERRRRKAQRRP (designed binder, not shown: large carriers) [GFP3.2iPA2]",–,60%,-54.6 mV,-68.8 mV,11.8 pA/pF,60%

# Next, values leading:
"enhancement of peak LVA ICa, dissociated rat DRG neurons after AAV6 injection (rat Cav3.2 (rat))","reduction of peak Cav3.2 current density (ICa3.2), whole-cell voltage-clamp, HEK3.2 cells [1]","Activation curves (G/Gmax), V½ [1]","Inactivation curves (I/Imax), V½ [1]","Peak T-type calcium currents, HEK3.2 cells (second institution) [1]","inhibition of peak LVA ICa (pA/pF), dissociated rat DRG neurons after AAV6 injection (rat Cav3.2 (rat))",Binder
30%,–,–,–,–,–,"{EGFP}-GLRSRAQASNSAVDGTAGPGSKRRSLRLYARWQSRWRKK (designed binder, not shown: large carriers) [GFP3.2iPA3]"
–,40%,–,–,–,–,"{EGFP}-GLRSRAQASNSAVDGTAGPGSRGRASELEPALGSRRKKKMSPP (designed binder, not shown: large carriers) [GFP3.2iPA4]"
